Experimental data reported in the DeepSol protein solubility set.

Assay: soluble on expression in E. coli; label from the status in PepcDB or PDB records

Which “soluble on expression in E. coli” value does the source give for “MSTKYLFIYNEIREKILCNKYTMNEQLPDEMTLAKQFACSRMTIKKALDLLVSEGLIFRKRGQGTFVLSRGSSKRKLIVPERDIRGLTKISEDAHSTIDSRIIHFKLEFANEFLAEKLQVALQSPVYNIYRLRIIDGKPYVLEQTYMSTDVIPGITEDILQKSIYNYIEGKLGLHIASATKILRASSSSENEQHYLQLLPTEPVFEVEQVAYLDNGTPFEYSISRHRYDLFEFNSFALRHSS” here?
Its value is “not soluble”.

Which “soluble on expression in E. coli” value does the source give for “MISAGIDPGTGSYDVVAIEDGKVVFRKNIPTEEVRASPDVIVEVIEESGAEVAAGLSGYGLPVKRFSELDEVDLLLMTLNFDSERAIGLRNIIKAVKERNVNLYTVPAVIHLPTVPPWRKMNRIDIGTADKLCSAVLAVAKLSEEEELTKLNFILAEVGEGFNAFIAVRNGRIVDGMGGTTSFPGYSSLGAMDAELAYIIGEFPKKLIFSGGVKSFASEWKVNENEVTNILSEFVLKGIRAMEVSTDADFYMLSGRFAPDVLRKLRGEGKEVRLLGGFGRGKQSAQGAAIIANAIAGGEYREIVDYMRIFEAKGTLLDYITSDIMEYVRRGLKRRGD” here?
The value was “not soluble”.

For “MSAEGFLAEHAHRRPSSRRRRAAQFGSPLTPGQDETVSDRTTADLERELAMLAYVRDRLRASEGEGFRIPTTAVDQVLDERNSLERSPWDPT”, which “soluble on expression in E. coli” value is on record?
The value was “not soluble”.

For “DWEVETGERYLPKLPECKIDNSKYQHPIQVVPSGPGMPEYLIYQVLTLAINQANRSVRITTPYFVPNTDLLETLKMTAQRGIDVELIIPHKNDSLMVQWASRAFYSELLAAGVKIYEFYGGLLHTKSVVIDDQFCLVGTVNMDMRSLWLNFEVTLAVDDEEFTKQLSWLQDGYIKQSHPVVLDEWEKRSLYSRFLERVFYLFNPLL”, which “soluble on expression in E. coli” value is on record?
The value was “not soluble”.

Which “soluble on expression in E. coli” value does the source give for “MSLELKVHETILEVNLGAMVANLNHYRSMLKPETKMVCMVKASAYGAGSYEIAKTLQEHHADYLAVAVADEGSDLRKAGITASIIIMDPELTAFKTMFDYKLEPEVYNFHLLDALIKAAEKEGITNFPIHVKLDTGMHRLGFEEKDIPQLIRRLKNQNALIPRSVFSHFVGSDSAQFDAFTRQQIERYEKMSKELQDAFPHKILRHICNTAGIERFPGAQFDMVRLGIGLYGISPIDNSIINNVSTLKTTILQIRDVAEEDTVGYSRKGHLIRPSRIAAIPIGYADGLNRHLGCGHGYCLVNGKKAPYVGNICMDVCMIDVTDIDCREGDQAIIFGDELPITALSDALETIPYEVLTGISTRVKRVYYQDEGHHHHHH” here?
Its value is “soluble”.

With “MVESNKTAADTYSLAIFRAIRRLQQAAEIHSKRLSRYGGLTPLQLLILHVLAVEGELTATQLAKLVSLSQASLSGVLDRLEGRGLLYRRRDEQDRRKSWLHLDPAGHEALAEAPPLLPEYVIERFAALPEWERHGLLAALLRAADLFGLPEEDVEEE” as the sequence, how does the “soluble on expression in E. coli” value read?
Its value is “not soluble”.

With “MGSDKIHHHHHHMDGLLNPRESSKFIAENSRDVFIDSGGVRRVAELLLAKAAGPELRVEGWKALHELNPRAADEAAVNWVFVTDTLNFSFWSEQDEHKCVVRYRGKTYSGYWSLCAAVNRALDEGIPITSASYYATVTLDQVRNILRSDTDVSMPLVEERHRILNETGKILLEKFGGSFLNCVRESENSAQKLMHLVVESFPSYRDVTLFEGKRVSFYKRAQILVADTWSVLEGKGDGCFKDISSITMFADYRLPQVLAHLGALKYSDDLLKKLLKGEMLSYGDRQEVEIRGCSLWCVELIRDCLLELIEQKGEKPNGEINSILLDYYLWDYAHDHREDMKGIPFHRIRCIYY” as the sequence, how does the “soluble on expression in E. coli” value read?
The value was “not soluble”.

Which “soluble on expression in E. coli” value does the source give for “MIYEGKAITVTALESGIVELKFDLKGESVNKFNRLTLNELRQAVDAIKADASVKGVIVSSGKDVFIVGADITEFVENFKLPDAELIAGNLEANKIFSDFEDLNVPTVAAINGIALGGGLEMCLAADFRVMADSAKIGLPEVKLGIYPGFGGTVRLPRLIGVDNAVEWIASGKENRAEDALKVSAVDAVVTADKLGAAALDLIKRAISGELDYKAKRQPKLEKLKLNAIEQMMAFETAKGFVAGQAGPNYPAPVEAIKTIQKAANFGRDKALEVEAAGFAKLAKTSASNCLIGLFLNDQELKKKAKVYDKIAKDVKQAAVLGAGIMGGGIAYQSASKGTPILMKDINEHGIEQGLAEAAKLLVGRVDKGRMTPAKMAEVLNGIRPTLSYGDFGNVDLVVEAVVENPKVKQAVLAEVENHVREDAILASNTSTISISLLAKALKRPENFVGMHFFNPVHMMPLVEVIRGEKSSDLAVATTVAYAKKMGKNPIVVNDCPGFLVNRVLFPYFGGFAKLVSAGVDFVRIDKVMEKFGWPMGPAYLMDVVGIDTGHHGRDVMAEGFPDRMKDDRRSAIDALYEAKRLGQKNGKGFYAYEADKKGKQKKLVDSSVLEVLKPIVYEQRDVTDEDIINWMMIPLCLETVRCLEDGIVETAAEADMGLVYGIGFPLFRGGALRYIDSIGVAEFVALADQYAELGALYHPTAKLREMAKNGQSFFG” here?
The value was “soluble”.

Which “soluble on expression in E. coli” value does the source give for “MSIEHHFLCPKKLLKLCNKKIDKDVIRNLQLLTEKFLSDIIHRSALLCKHKGKSTVDNTDIRFVIEKDFDYSFGTREIQGTTSLPTAEHLERMAEISRQNK” here?
Its value is “not soluble”.

With “MGSDKIHHHHHHMIKKSDYPRYIQMLKRRPEFSGFTPDEFNQLEQQMRIKEYPKGQLLFDQADTRSRFYFVISGLLRSERIDETGDFSFYSFIAENKGFPYRGLFHDHEYAYAVNTMTPAVVASFPMAEFENLLTRNSEMMKRVVVEMGQIINENEDQLQQMVTSSASDRVRNALKILGRKLGNQLAGDRWFVPYAITLIELAKMAGTTRETASQVVQRLEADGQIIYEHKHFTIFIK” as the sequence, how does the “soluble on expression in E. coli” value read?
Its value is “not soluble”.

For “MSLTVIRKQDVISSVADALQYISYYHPLDFVKALEKAYQREESQAAKDSIAQILINSRMSAEGHRPICQDTGIVTCFVNIGMGVQWDSTDMTVQQMVDEGVRQAYTNPDNPLRASVLMDPAGKRINTKDNTPAVVHINMVPGDKVDIQIAAKGGGSENKTKMVMLNPSDDIAEWVEKTVPLMGAGWCPPGMLGIGIGGTAEKAAVLAKEALMEHIDIHELIERGPQNAEEELRLDIFNRVNKLGIGAQGLGGLTTVVDVKIKSAPTHAASKPVCMIPNCAATRHVHFTLDGSGPAQLTPPKLEDWPQITWEAGANTRRVNLDNITREEIQTWKTGETVLLSGKILTGRDAAHKRIQTMLQKGEKLPDSVDLKDKFIYYVGPVDAVGDEVVGPAGPTTSTRMDKFTDMMLEEVGVMGMIGKAERGPATVESIKKHKAVYLMAVGGAAYLVAKAIKKARVVAFEDLGMEAIYEFEVEDMPVTVAVDSTGANAHQIGPDTWRVKIAEAAKEGGSHHHHHH”, which “soluble on expression in E. coli” value is on record?
Its value is “soluble”.

With “KEKVKEPVKHLNSKNFDEFITKNKIVVVDFWAEWCAPCLILAPVIEELANDYPQVAFGKLNTEESQDIAMRYGIMSLPTIMFFKNGELVDQILGAVPREEIEVRLKSLLE” as the sequence, how does the “soluble on expression in E. coli” value read?
The value was “soluble”.

Which “soluble on expression in E. coli” value does the source give for “MAKLDFHIVKRIREQIANGGTRVALKHKVAGAWQGITWEQFGQQVDTLSLALLAQGLGVQDKIGIFSNNMPQWTIADFAALQLRGVTVPIYPTNTAAQSAYIIDNADVKVLFVGEQPQFDAAVSIFEQCEQLELIVAMSDDIELGDHDFAISWKDFVAKGDTSHQAELDERLEQAKVDDLLTLIYTSGTTGQPKGVMLDYGNIAAQLEGHDQRLSLSQDDVSLCFLPLSHVFERAWTFYVLYKGATNCYLQDTMQVRDALSEVRPTVMCAVPRFYEKIFSAIHEKVSRAPIHRKIMFTWAVNMGAKMALCHQEKRKPSMMLRKAHA” here?
The value was “not soluble”.

Which “soluble on expression in E. coli” value does the source give for “MGSDKIHHHHHHMSKNDLADLLRVGPETTMGKFMRQYWLPAVLSHEVKADGDPVRLMLLGEKLIAFRDSSGRVGVLDHRCPHRCASLFVGRNEENGIRCVYHGWKFDVDGNCVDMPSVPARLDFKEKVHARAYKAVERNGLIWVYMGENQNNPPPLPAIEANMIPGSKIWCLQRQCNWLQALEGDIDTSHVGFLHVGALQPEDLPEGSPLRPTVLNRAPEYRVQNAEWGATYGAYRLAEDGRMSWRAAQFMFPFWTMTPNILFSTRAIARAWVPMDDTHVMLFDITGGVDEGNPFFTTKLKNGEPMYEKIRRKPNGTGWYDRWLPVDGLQNDWGIDREAQRNMIHYTGIDNPSMQDQAITESMGPITDHSFEHLAPTDQMIAFVRRRLTQALRNFRDDSAPAPCAFSPETYFGARSGAFWADPVVEFSTAYRVELEKAQRWPANPDGSAVEREPEVAR” here?
Its value is “not soluble”.

For “MGSDKIHHHHHHMDRIIEKLDHGWWVVSHEQKLWLPKGELPYGERANFDLVGQRALQIGEWQGEPVWLVQQQRRHDMGSVRQVIDLDVGLFQLAGRGVQLAEFYRSHKYCGYCGHEMYPSKTEWAMLCSHCRERYYPQIAPCIIVAIRRDDSILLAQHTRHRNGVHTVLAGFVEVGETLEQAVAREVMEESGIKVKNLRYVTSQPWPFPQSLMTAFMAEYDSGDIVIDPKELLEANWYRYDDLPLLPPPGTVARRLIEDTVAMCRAEYE”, which “soluble on expression in E. coli” value is on record?
Its value is “not soluble”.

For “MGSDKIHHHHHHMSAAVERSPEEKRVIPVALSSASVYPLSVHDAFAVAQDLGFDGVEVMVTNNATSQSPHSLLELSHRYRQPIVSIHAPTLLLTQKVWGSAWNKIEMSCRMAREVGCGTVVVHPPFRWQNNYAENFPAGIRQLADMYQVRIAVENMYPWRVRGRETVAYLPHWDPLGQDYDDVTWDFSHAATAGANSVEAIKALGGKLRHIHLTDGSGSGRDEHLIPGRGNQGCAEALQHLAGSGFDGVVVAEISTRRAKFAGERELWLNETLKFARQHLSHPLVGAREA”, which “soluble on expression in E. coli” value is on record?
The value was “not soluble”.

Which “soluble on expression in E. coli” value does the source give for “MGHHHHHHSHMTWKGGGGWMAAVTHGPGITWGSLLPSAVRQGEQKCKNTDVYFSKLGGGGVPPDSFQRADCGGPTVYPTPARESLSFGTPGFPELRGKLILHVSIAVVVFLFGPGRAGEGPSRLQEASRVSWTLLCRPQAALQTPVRWDDFRRSQPGTARPSAWEPVQGAVS” here?
The value was “soluble”.

Which “soluble on expression in E. coli” value does the source give for “MSSAHNAYNAGIMQKTGKAFADEFFAEENQVVHESNAVVLVLMKSDEIDAIIEDIVLKGGKAKNPSIVVEDKAGFWWIKADGAIEIDAAEAGELLGKPFSVYDLLINVSSTVGRAYTLGTKFTITSELMGLDRALTDI” here?
Its value is “soluble”.

With “PTPPNWNMTSSGLEVKSPGDGILTPGENMELVAAVCSACHSLHMVTQQGLSRQRWDESLDWMIEEQGMEDLSGDDREAILEYLSTYYGG” as the sequence, how does the “soluble on expression in E. coli” value read?
Its value is “not soluble”.

For “MGSDKIHHHHHHMIRILMGSYGSGKTEISINLALKLKSSGKDVSLVDLDVVTPYFRLRDLKKKLEELGIHVVTVGDNLRYSDLPIIPKNTDWLSSEEAVIDTGGEDGAKAVGALRHLMNGKNTHTYFVVNAFRPFCERPEDIIENLKKISTLSKMKIDFLINNSNLGDMTTAEVVLEGERIVSEVSRKTGIKVLFTVVPEELIDPPETDYPLFSIRRFMKRKLGIGGMRT”, which “soluble on expression in E. coli” value is on record?
Its value is “not soluble”.

Which “soluble on expression in E. coli” value does the source give for “MGSDKIHHHHHHMIGQSLFIRGARGVTLTPSGERYFQDVTTILHNLMLATEKAADKSPKDSLYIHSSPSFGLLWLLPRLESFKEKFPMIQVNLSCSYENLHFTRDKIDIDIRHGLPNWTGVEIRTIRNEKLEVLASPKLLERSPVHKPQDLLKKELILSRSTLVTWPQWFAHQGLSIPEFPYTLSFDRSYMSLEAATHGLGFVLESNLLTQNYLESGKLVRVFADELSIPISAHHLVYPRTHQFIPKIELFLNWIHDELAG” here?
Its value is “not soluble”.

Which “soluble on expression in E. coli” value does the source give for “MKRTGILLVNLGTPKDSSKTEVRKYLKTFLSDRRVIKIHPIIWKPILNGIILNIRPKKSAKLYQKICTENGFPLLEYTEKQMENLKNICPEVEVTIGMSYSEPSIETALDTLLSKEIEELNVIPMYPQYSGTTVGSVFDSVMNYFIKSDRIVDIKFIRSFYNNPQYIDYFSKKINEALNESPIDAIVFSYHGIPMSYVKDGDNYPKECTK” here?
Its value is “not soluble”.
